The source of these data is the supplement of paper PMC11316812.

± gives the standard deviation of the averaged measurements.

For one data set, the system named is MCF7. As to the kind of experiment: percentage of EdU-negative (G0-arrested) nuclei per well, 72 h; higher = more G0 arrest. As to conditions: reference: sequence is the full UniProt precursor, the tested protein was the secreted form or ectodomain.
Another data set relates to hTERT-HMEC. The description is as above. As to conditions: reference: sequence is the full UniProt precursor, the tested protein was the secreted form or ectodomain.
Where [1] appears, read: protein concentration 0.0322857 µM.
The mark [2] stands for this setting: protein concentration 0.322857 µM.
[3] abbreviates: protein concentration 0.00525 µM.
[4] abbreviates: protein concentration 0.0525 µM.
Setting [5] is: protein concentration 0.0225 µM.
[6] abbreviates: protein concentration 0.0215 µM.
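Further: secreted proteins added to cultured cells, EdU pulse at the end, nuclei found by Hoechst imaging, EdU status from nuclear versus surrounding ring intensity ratio, PBS as neutral control.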

With “MASYLYGVLFAVGLCAPIYCVSPANAPSAYPRPSSTKSTPASQVYSLNTDFAFRLYRRLVLETPSQNIFFSPVSVSTSLAMLSLGAHSVTKTQILQGLGFNLTHTPESAIHQGFQHLVHSLTVPSKDLTLKMGSALFVKKELQLQANFLGNVKRLYEAEVFSTDFSNPSIAQARINSHVKKKTQGKVVDIIQGLDLLTAMVLVNHIFFKAKWEKPFHPEYTRKNFPFLVGEQVTVHVPMMHQKEQFAFGVDTELNCFVLQMDYKGDAVAFFVLPSKGKMRQLEQALSARTLRKWSHSLQKRWIEVFIPRFSISASYNLETILPKMGIQNVFDKNADFSGIAKRDSLQVSKATHKAVLDVSEEGTEATAATTTKFIVRSKDGPSYFTVSFNRTFLMMITNKATDGILFLGKVENPTKS [Q86WD7]”, the “percentage of EdU-negative” value in the data set with MCF7 (setting [1]) came out at 27.1 ± 1.6%; in the data set on MCF7 (setting [2]) it was 25.7 ± 0.86%; in the data set on hTERT-HMEC (setting [1]) it was 5.19 ± 0.14%; with hTERT-HMEC (setting [2]) it was 6.1 ± 0.46%.
Take “MATFISVQLKKTSEVDLAKPLVKFIQQTYPSGGEEQAQYCRAAEELSKLRRAAVGRPLDKHEGALETLLRYYDQICSIEPKFPFSENQICLTFTWKDAFDKGSLFGGSVKLALASLGYEKSCVLFNCAALASQIAAEQNLDNDEGLKIAAKHYQFASGAFLHIKETVLSALSREPTVDISPDTVGTLSLIMLAQAQEVFFLKATRDKMKDAIIAKLANQAADYFGDAFKQCQYKDTLPKEVFPVLAAKHCIMQANAEYHQSILAKQQKKFGEEIARLQHAAELIKTVASRYDEYVNVKDFSDKINRALAAAKKDNDFIYHDRVPDLKDLDPIGKATLVKSTPVNVPISQKFTDLFEKMVPVSVQQSLAAYNQRKADLVNRSIAQMREATTLANGVLASLNLPAAIEDVSGDTVPQSILTKSRSVIEQGGIQTVDQLIKELPELLQRNREILDESLRLLDEEEATDNDLRAKFKERWQRTPSNELYKPLRAEGTNFRTVLDKAVQADGQVKECYQSHRDTIVLLCKPEPELNAAIPSANPAKTMQGSEVVNVLKSLLSNLDEVKKEREGLENDLKSVNFDMTSKFLTALAQDGVINEEALSVTELDRVYGGLTTKVQESLKKQEGLLKNIQVSHQEFSKMKQSNNEANLREEVLKNLATAYDNFVELVANLKEGTKFYNELTEILVRFQNKCSDIVFARKTERDELLKDLQQSIAREPSAPSIPTPAYQSSPAGGHAPTPPTPAPRTMPPTKPQPPARPPPPVLPANRAPSATAPSPVGAGTAAPAPSQTPGSAPPPQAQGPPYPTYPGYPGYCQMPMPMGYNPYAYGQYNMPYPPVYHQSPGQAPYPGPQQPSYPFPQPPQQSYYPQQ [Q8WUM4]”: the “percentage of EdU-negative” value in the data set on MCF7 (setting [3]) came to 24.7 ± 1.5%; in the data set on MCF7 (setting [4]), 25.1 ± 1%; in the data set with hTERT-HMEC (setting [3]) it was 4.68 ± 0.54%; in the data set with hTERT-HMEC (setting [4]), 4.872 ± 0.012%.
On to “MATHHTLWMGLALLGVLGDLQAAPEAQVSVQPNFQQDKFLGRWFSAGLASNSSWLREKKAALSMCKSVVAPATDGGLNLTSTFLRKNQCETRTMLLQPAGSLGSYSYRSPHWGSTYSVSVVETDYDQYALLYSQGSKGPGEDFRMATLYSRTQTPRAELKEKFTAFCKAQGFTEDTIVFLPQTDKCMTEQ”, for which the “percentage of EdU-negative” value in the data set with MCF7 (setting [5]) is 27.3 ± 2.4%; in the data set with MCF7 (protein concentration 0.225 µM), 25.1 ± 1.9%; in the data set on hTERT-HMEC (setting [5]) it was 4.95 ± 1.2%; with hTERT-HMEC (protein concentration 0.225 µM) it was 7.39 ± 0.34%.
For the sequence “MATMENKVICALVLVSMLALGTLAEAQTETCTVAPRERQNCGFPGVTPSQCANKGCCFDDTVRGVPWCFYPNTIDVPPEEECEF”, the “percentage of EdU-negative” value in the data set on MCF7 (setting [6]) came to 25.09 ± 0.25%; with MCF7 (protein concentration 0.215 µM) it was 25 ± 1.6%; with hTERT-HMEC (setting [6]) it was 4.62 ± 0.35%; in the data set on hTERT-HMEC (protein concentration 0.215 µM), 5.31 ± 0.26%.
For “MATMVPSVLWPRACWTLLVCCLLTPGVQGQEFLLRVEPQNPVLSAGGSLFVNCSTDCPSSEKIALETSLSKELVASGMGWAAFNLSNVTGNSRILCSVYCNGSQITGSSNITVYRLPERVELAPLPPWQPVGQNFTLRCQVEDGSPRTSLTVVLLRWEEELSRQPAVEEPAEVTATVLASRDDHGAPFSCRTELDMQPQGLGLFVNTSAPRQLRTFVLPVTPPRLVAPRFLEVETSWPVDCTLDGLFPASEAQVYLALGDQMLNATVMNHGDTLTATATATARADQEGAREIVCNVTLGGERREARENLTVFSFLGPIVNLSEPTAHEGSTVTVSCMAGARVQVTLDGVPAAAPGQPAQLQLNATESDDGRSFFCSATLEVDGEFLHRNSSVQLRVLYGPKIDRATCPQHLKWKDKTRHVLQCQARGNPYPELRCLKEGSSREVPVGIPFFVNVTHNGTYQCQASSSRGKYTLVVVMDIEAGSSHFVPVFVAVLLTLGVVTIVLALMYVFREHQRSGSYHVREESTYLPLTSMQPTEAMGEEPSRAE”, the “percentage of EdU-negative” value was found to be 25.2 ± 0.75% with MCF7 (setting [5]), 28 ± 1.2% in the data set with MCF7 (protein concentration 0.225 µM), 4.98 ± 0.59% in the data set on hTERT-HMEC (setting [5]) and 16.4 ± 1.8% in the data set with hTERT-HMEC (protein concentration 0.225 µM).
For “MATSMGLLLLLLLLLTQPGAGTGADTEAVVCVGTACYTAHSGKLSAAEAQNHCNQNGGNLATVKSKEEAQHVQRVLAQLLRREAALTARMSKFWIGLQREKGKCLDPSLPLKGFSWVGGGEDTPYSNWHKELRNSCISKRCVSLLLDLSQPLLPSRLPKWSEGPCGSPGSPGSNIEGFVCKFSFKGMCRPLALGGPGQVTYTTPFQTTSSSLEAVPFASAANVACGEGDKDETQSHYFLCKEKAPDVFDWGSSGPLCVSPKYGCNFNNGGCHQDCFEGGDGSFLCGCRPGFRLLDDLVTCASRNPCSSSPCRGGATCVLGPHGKNYTCRCPQGYQLDSSQLDCVDVDECQDSPCAQECVNTPGGFRCECWVGYEPGGPGEGACQDVDECALGRSPCAQGCTNTDGSFHCSCEEGYVLAGEDGTQCQDVDECVGPGGPLCDSLCFNTQGSFHCGCLPGWVLAPNGVSCTMGPVSLGPPSGPPDEEDKGEKEGSTVPRAATASPTRGPEGTPKATPTTSRPSLSSDAPITSAPLKMLAPSGSPGVWREPSIHHATAASGPQEPAGGDSSVATQNNDGTDGQKLLLFYILGTVVAILLLLALALGLLVYRKRRAKREEKKEKKPQNAADSYSWVPERAESRAMENQYSPTPGTDC [Q9NPY3]”, in that order: 25.7 ± 0.77%, 26.9 ± 0.77%, 5.36 ± 0.65% and 4.92 ± 0.54%.
Consider “MAVAAAAAAAGPAGAGGGRAQRSGLLEVLVRDRWHKVLVNLSEDALVLSSEEGAAAYNGIGTATNGSFCRGAGAGHPGAGGAQPPDSPAGVRTAFTDLPEQVPESISNQKRGVKVLKQELGGLGISIKGGKENKMPILISKIFKGLAADQTQALYVGDAILSVNGADLRDATHDEAVQALKRAGKEVLLEVKYMREATPYVKKGSPVSEIGWETPPPESPRLGGSTSDPPSSQSFSFHRDRKSIPLKMCYVTRSMALADPENRQLEIHSPDAKHTVILRSKDSATAQAWFSAIHSNVNDLLTRVIAEVREQLGKTGIAGSREIRHLGWLAEKVPGESKKQWKPALVVLTEKDLLIYDSMPRRKEAWFSPVHTYPLLATRLVHSGPGKGSPQAGVDLSFATRTGTRQGIETHLFRAETSRDLSHWTRSIVQGCHNSAELIAEISTACTYKNQECRLTIHYENGFSITTEPQEGAFPKTIIQSPYEKLKMSSDDGIRMLYLDFGGKDGEIQLDLHSCPKPIVFIIHSFLSAKITRLGLVA”, for which the “percentage of EdU-negative” value is 27.8 ± 2.2% with MCF7 (setting [5]), 25.6 ± 0.97% with MCF7 (protein concentration 0.225 µM), 4.71 ± 0.2% with hTERT-HMEC (setting [5]) and 6.28 ± 0.64% with hTERT-HMEC (protein concentration 0.225 µM).
